Laboratory results: IntAct's records for PubMed 18626018

B1: CREB-regulated transcription coactivator 2 (Mus musculus), Q3U182 (parent)
chain: MATSGANGPGSATASASNPRKFSEKIALQKQRQAEETAAFEEVMMDIGSTRLQAQKLRLAYTRSSHYGGSLPNVNQIGCGLAEFQSPLHSPLDSSRSTRHHGLVERVQRDARRMVSPLRRYPRHIDSSPYSPAYLSPPPESGWRRMMPWGNLPAEKGQLFRLPSALNRTSSDSALHTSVMNPNPQDTYPGPTPPSVLPSRRGGGFLDGEMDAKVPAIEENVVDDKHLLKPWDAKKLSSSSSRPRSCEVPGINIFPSPDQPANVPVLPPAMNTGGSLPDLTNLHFPPPLPTPLDPEETVYPSLSGGNSTTNLTHTMTHLGISGGLGLGPSYDVPGLHSPLSHPSLQSSLSNPNLQASLSSPQPQLQGSHSHPSLPASSLAHHALPTTSLGHPSLSAPALSSSSSSSSTSSPVLSAPPYPASTPGASPRHRRVPLSPLSLPAGPADARRSQQQLPKQFSPTMSPTLSSITQGVPLDTSKLPTDQRLPPYPYSPPSLVIPTHPPTPKSLQQLPSQACLVQPSGGQPPGRQPHYGALYPPGSSGHGQQPYHRPINDFSLGNLEQFNMESPSTSLVLDPPAFSEGPGFLGSEGSMSGPQDPHVLNHQNLTHCSRHGSGPNIILTGDSSPGFSKEIAAALAGVPGFEVSASGLELGLGLEDELRMEPLGLEGLTMLSDPCALLPDPAVEDSFRSDRLQ

Columns and labels:
[1] = variants of: B1; settings: with 1433b_human YWHAB
[2] = variants of: B1; settings: with mark2_human MARK2, Q7KZI7
Chain of mark2_human MARK2, Q7KZI7 (Q7KZI7 whole entry): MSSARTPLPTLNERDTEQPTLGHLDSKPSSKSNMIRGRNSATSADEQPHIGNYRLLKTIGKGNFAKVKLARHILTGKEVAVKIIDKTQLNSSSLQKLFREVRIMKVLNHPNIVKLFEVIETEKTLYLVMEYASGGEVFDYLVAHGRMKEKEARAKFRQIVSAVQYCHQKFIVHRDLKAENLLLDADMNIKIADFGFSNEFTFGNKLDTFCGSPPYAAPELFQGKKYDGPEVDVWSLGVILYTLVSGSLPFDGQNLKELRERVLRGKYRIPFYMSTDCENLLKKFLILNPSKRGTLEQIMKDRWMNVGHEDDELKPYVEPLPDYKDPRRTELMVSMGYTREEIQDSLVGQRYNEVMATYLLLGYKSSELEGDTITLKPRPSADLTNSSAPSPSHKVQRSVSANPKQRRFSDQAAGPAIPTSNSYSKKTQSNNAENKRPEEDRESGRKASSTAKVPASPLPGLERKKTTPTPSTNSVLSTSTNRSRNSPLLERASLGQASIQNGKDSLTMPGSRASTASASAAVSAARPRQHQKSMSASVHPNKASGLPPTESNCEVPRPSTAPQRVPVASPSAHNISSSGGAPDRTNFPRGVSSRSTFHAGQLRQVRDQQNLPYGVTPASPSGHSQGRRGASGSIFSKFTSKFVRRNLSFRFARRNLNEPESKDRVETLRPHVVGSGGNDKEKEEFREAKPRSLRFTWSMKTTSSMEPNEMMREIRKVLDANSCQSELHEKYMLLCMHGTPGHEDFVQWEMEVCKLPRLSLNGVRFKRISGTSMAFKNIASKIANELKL

[3] = variants of: B1; settings: with aapk1_human PRKAA1, Q13131
Chain of aapk1_human PRKAA1, Q13131 (Q13131 whole entry, looked up): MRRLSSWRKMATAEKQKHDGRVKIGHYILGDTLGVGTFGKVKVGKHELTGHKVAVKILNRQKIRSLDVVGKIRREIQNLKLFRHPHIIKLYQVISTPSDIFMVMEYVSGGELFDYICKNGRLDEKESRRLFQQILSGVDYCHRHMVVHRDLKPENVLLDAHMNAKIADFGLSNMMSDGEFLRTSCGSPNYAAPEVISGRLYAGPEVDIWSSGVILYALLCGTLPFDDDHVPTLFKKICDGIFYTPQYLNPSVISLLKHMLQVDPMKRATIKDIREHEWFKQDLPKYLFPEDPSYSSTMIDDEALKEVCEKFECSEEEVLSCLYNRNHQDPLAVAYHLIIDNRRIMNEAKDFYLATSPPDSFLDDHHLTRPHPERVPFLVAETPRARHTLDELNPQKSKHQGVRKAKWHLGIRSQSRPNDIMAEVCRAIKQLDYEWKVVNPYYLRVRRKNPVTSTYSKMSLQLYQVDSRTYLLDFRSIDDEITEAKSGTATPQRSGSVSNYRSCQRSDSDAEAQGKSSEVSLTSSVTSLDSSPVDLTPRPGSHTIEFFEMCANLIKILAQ

[4] = variants of: B1; settings: with mark3_human MARK3, P27448
Chain of mark3_human MARK3, P27448 (P27448 whole entry, looked up): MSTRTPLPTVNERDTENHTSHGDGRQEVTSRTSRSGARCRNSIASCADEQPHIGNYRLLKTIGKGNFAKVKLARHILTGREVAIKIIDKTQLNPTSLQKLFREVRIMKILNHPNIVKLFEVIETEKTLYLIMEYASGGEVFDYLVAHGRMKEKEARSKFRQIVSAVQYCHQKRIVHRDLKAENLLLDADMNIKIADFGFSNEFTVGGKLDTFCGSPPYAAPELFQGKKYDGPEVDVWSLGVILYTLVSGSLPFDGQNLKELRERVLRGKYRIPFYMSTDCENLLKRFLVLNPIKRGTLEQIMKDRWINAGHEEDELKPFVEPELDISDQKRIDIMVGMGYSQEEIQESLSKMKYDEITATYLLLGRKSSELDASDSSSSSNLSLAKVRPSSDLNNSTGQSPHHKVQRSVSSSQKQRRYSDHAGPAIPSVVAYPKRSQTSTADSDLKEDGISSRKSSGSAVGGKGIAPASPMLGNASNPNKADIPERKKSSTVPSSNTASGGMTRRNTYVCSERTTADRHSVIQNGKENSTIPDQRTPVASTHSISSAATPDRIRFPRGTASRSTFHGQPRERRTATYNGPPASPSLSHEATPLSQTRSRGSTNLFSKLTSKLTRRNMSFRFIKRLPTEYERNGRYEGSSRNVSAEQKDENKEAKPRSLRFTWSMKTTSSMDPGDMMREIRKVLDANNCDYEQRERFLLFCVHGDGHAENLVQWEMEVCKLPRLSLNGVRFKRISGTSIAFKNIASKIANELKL

Variant	effect of a mutation on the interaction [1]	effect of a mutation on the interaction [2]	effect of a mutation on the interaction [3]	effect of a mutation on the interaction [4]
S171A	disrupting interaction	disrupting interaction	disrupting interaction	disrupting interaction
S171A;S275A	disrupting interaction			
S275A		disrupting interaction	disrupting interaction	disrupting interaction
